Results taken from patent US20250163158A1 (Astellas, published 2025).

Molecular target: T1, integrin α11 (ITGA11) (human, UniProt Q9UKX5 23-1188)
T1 sequence (looked up): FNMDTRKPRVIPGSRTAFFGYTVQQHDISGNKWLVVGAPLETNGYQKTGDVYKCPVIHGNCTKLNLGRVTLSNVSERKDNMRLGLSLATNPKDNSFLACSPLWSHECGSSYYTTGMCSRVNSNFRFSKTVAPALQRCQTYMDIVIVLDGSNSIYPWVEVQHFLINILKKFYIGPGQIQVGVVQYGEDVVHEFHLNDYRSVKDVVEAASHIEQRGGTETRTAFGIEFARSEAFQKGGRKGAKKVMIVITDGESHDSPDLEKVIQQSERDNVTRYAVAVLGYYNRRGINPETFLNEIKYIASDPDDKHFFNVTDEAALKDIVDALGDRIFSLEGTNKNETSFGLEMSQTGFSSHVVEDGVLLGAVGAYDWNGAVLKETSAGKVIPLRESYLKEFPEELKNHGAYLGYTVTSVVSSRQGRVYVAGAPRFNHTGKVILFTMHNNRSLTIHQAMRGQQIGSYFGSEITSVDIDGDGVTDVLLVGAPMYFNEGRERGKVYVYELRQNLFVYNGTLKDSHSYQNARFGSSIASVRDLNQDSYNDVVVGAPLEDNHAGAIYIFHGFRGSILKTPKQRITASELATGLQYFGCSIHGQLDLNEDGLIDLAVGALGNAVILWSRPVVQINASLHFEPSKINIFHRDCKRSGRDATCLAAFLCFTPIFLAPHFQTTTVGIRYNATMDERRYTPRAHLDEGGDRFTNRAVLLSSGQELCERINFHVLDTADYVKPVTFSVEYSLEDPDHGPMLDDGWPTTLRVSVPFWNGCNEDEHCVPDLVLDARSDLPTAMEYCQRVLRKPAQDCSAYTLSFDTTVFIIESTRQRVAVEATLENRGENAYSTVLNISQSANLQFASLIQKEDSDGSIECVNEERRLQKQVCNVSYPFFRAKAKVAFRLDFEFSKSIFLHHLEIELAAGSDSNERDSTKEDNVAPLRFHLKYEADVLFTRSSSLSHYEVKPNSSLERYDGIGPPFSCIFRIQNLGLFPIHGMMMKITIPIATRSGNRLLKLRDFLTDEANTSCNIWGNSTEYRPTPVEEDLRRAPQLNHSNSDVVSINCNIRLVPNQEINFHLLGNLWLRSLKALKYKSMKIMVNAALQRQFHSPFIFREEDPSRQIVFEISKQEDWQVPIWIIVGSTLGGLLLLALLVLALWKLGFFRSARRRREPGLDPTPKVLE
Assay: cell-based or functional assay

B1: anti-ITGA11 antibody #014 (antibody, mouse IgG2a, kappa, V domains shown)
VH: EVQLVESGGGLVQPGGSLRLSCAASGFNLTSSYIHWVRQAPGKGLEWVASISSHSSYTYYADSVKGRFTISADTSKNTAYLQMNSLRAEDTAVYYCARYWYYSAWALDYWGQGTLVTVSS
VL: DIQMTQSPSSLSASVGDRVTITCRASQSVSSAVAWYQQKPGKAPKLLIYSASSLYSGVPSRFSGSRSGTDFTLTISSLQPEDFATYYCQQSAPYSSLITFGQGTKVEIKR
- luminescence intensity ratio, ADCC Reporter Bioassay kit, non-senescent IMR-90 cell, relative to the cell without antibody regarded as 1: 1.4 ratio
- luminescence intensity ratio, ADCC Reporter Bioassay kit, senescent IMR-90 cell, relative to the cell without antibody regarded as 1: 4.7 ratio
